Assay [1] concerns the target prokineticin receptor(s) of guinea pig ileal smooth muscle (ileal membrane preparation / ileum longitudinal muscle) (guinea pig). The assay can be described thus: displacement of 125I-prokineticin 1 (20 pM) from guinea pig ileal membranes by unlabeled prokineticin 2, high-affinity site. A general note: In a radioligand displacement assay an active substance lowers the binding of a labelled ligand.

Assay [2] shares this target. The assay can be described thus: displacement of 125I-prokineticin 1 (20 pM) from guinea pig ileal membranes by unlabeled prokineticin 2, low-affinity site.
The target is the same in assay [3]. The assay can be described thus: competition radioligand binding on guinea pig ileal membranes, filtration; unlabeled prokineticin 2 varied against 125I-prokineticin 1 (20 pM).
Assay [4] has as its target prokineticin receptor expressed endogenously on M2A7 melanoma cells (ATCC CRL-2500). The assay can be described thus: cell-based or functional assay.
Assay [5] has as its target prokineticin receptor(s) of guinea pig ileal smooth muscle (ileal membrane preparation / ileum longitudinal muscle) (guinea pig). The assay can be described thus: cell-based or functional assay.
For assay [6] the target is unchanged. Put plainly: saturation binding of 125I-prokineticin 1 to guinea pig ileal membranes, low-affinity site, n=3.
For assay [7] the target is unchanged. Put plainly: displacement of 125I-prokineticin 1 (20 pM) from guinea pig ileal membranes by unlabeled prokineticin 1, two-site model, high-affinity site.
Assay [8] shares this target. Put plainly: displacement of 125I-prokineticin 1 (20 pM) from guinea pig ileal membranes by unlabeled prokineticin 1, two-site model, low-affinity site.
The target of assay [9] is prokineticin receptor expressed endogenously on M2A7 melanoma cells (ATCC CRL-2500). Put plainly: binding of iodinated prokineticin 1 to M2A7 melanoma cells.
The target of assay [10] is prokineticin receptor(s) of guinea pig ileal smooth muscle (ileal membrane preparation / ileum longitudinal muscle) (guinea pig). The assay can be described thus: competition radioligand binding on guinea pig ileal membranes, filtration; unlabeled prokineticin 1 varied against 125I-prokineticin 1 (20 pM).
The target is the same in assay [11]. Put plainly: saturation binding of 125I-prokineticin 1 to guinea pig ileal membranes, high-affinity site, n=3.
Assay [12] shares this target. Put plainly: saturation binding of 125I-prokineticin 1 to guinea pig ileal membranes, Scatchard analysis, two-site model, low-affinity site, n=3.
Assay [13] has the same target. Put plainly: saturation binding of 125I-prokineticin 1 to guinea pig ileal membranes, Scatchard analysis, two-site model, high-affinity site, n=3.

We go through four molecules from patent publication US20030113867A1.

B1: recombinant refolded human prokineticin 2 with C-terminal 6xHis-tag (ligand)
chain: AVITGACDKDSQCGGGMCCAVSIWVKSIRICTPMGKLGDSCHPLTRKVPFFGRRMHHTCPCLPGLACLRTSFNRFICLAQKHHHHHH
Take B1: the Ki in [1] was 4.2 pM; in assay [2], 1.22 nM. The molecule further registered an IC50 (read off the curve) in [3] of 4 nM. Also, the calcium mobilization in M2A7 melanoma cells (FLIPR), EC50 in assay [4] was 21 nM. Further, the contraction of guinea-pig ileum longitudinal muscle, ED50 in [5] is 0.9 nM. In [5], this molecule returned a time constant to midway contraction of ileal strips of 15 min.

B2: recombinant refolded human prokineticin 1 with C-terminal 6xHis-tag (ligand)
chain: AVITGACERDVQCGAGTCCAISLWLRGLRMCTPLGREGEECHPGSHKVPFFRKRKHHTCPCLPNLLCSRFPDGRYRCSMDLKNINFHHHHHH
modifications: 125I-iodinated by the iodogen method where used as the labeled ligand; plain where used as unlabeled competitor; five disulfide bonds
For B2, the Bmax (fmol/mg of protein) in assay [6] worked out at 26.4; in assay [11], 7.8. For the same molecule, the inhibition constant (Ki) in assay [7] came to 8 pM; in assay [8] it was 1.5 nM. In [9], the receptor level (fmole/mg protein) came out at 150. Also, the IC50 (read off the curve) in [10] was 5 nM. Further, the Kd stood at 0.227 nM in assay [12] and 5 pM in assay [13]. In addition, the calcium mobilization in M2A7 melanoma cells (FLIPR), EC50 in assay [4] worked out at 12 nM. This molecule also returned a contraction of guinea-pig ileum longitudinal muscle, ED50 in [5] of 0.46 nM. In assay [5], this molecule registered a time constant to midway contraction of ileal strips of 15 min.

B3: chimeric prokineticin 12 (exons 1 and 2 of prokineticin 1, exon 3 of prokineticin 2) (ligand)
chain: AVITGACERDVQCGAGTCCAISLWLRGLRMCTPLGREGEECHPGSHKVPFFGRRMHHTCPCLPGLACLRTSFNRFICLAQK
As to B3, the time constant to midway contraction of ileal strips in assay [5] amounted to 40 min.

B4: chimeric prokineticin 21 (exons 1 and 2 of prokineticin 2, exon 3 of prokineticin 1) (ligand)
chain: AVITGACDKDSQCGGGMCCAVSIWVKSIRICTPMGKLGDSCHPLTRKVPFFRKRKHHTCPCLPNLLCSRFPDGRYRCSMDLKNINF
Regarding B4, in [5], the EC50 of ileal contraction relative to prokineticin 1 or prokineticin 2 came out at 8 fold and the time constant to midway contraction of ileal strips is 40 min.

One may read the Ki as the equilibrium dissociation constant of an inhibitor or competing ligand from its target. Lower therefore signals higher affinity. The term Kd denotes the equilibrium constant for the complex coming apart. Higher therefore signals a looser complex.
